This is an account of results in article PMC6048764, “Myricetin antagonizes semen-derived enhancer of viral infection (SEVI) formation and influences its infection-enhancing activity” (Retrovirology, 2018).

The data set deals with the molecule itself. Nature of the data set: thioflavin T fluorescence; amyloid fibril formation; peptide 3 mg/ml agitated at 1400 rpm at 37 °C for 48 h, without myricetin.

As for RLQGGVLVNEILNHMKA (peptide, UniProt P15309 257-273, looked up, source: synthetic peptide) [PAP257–273 Arg273A], the binding result was “binds”.

B1: SEM2_(86–107) (peptide, UniProt Q02383 86-107, looked up)
peptide: DLNALHKATKSKQHLGGSQQLL
notes: source: synthetic peptide (Scilight Biotechnology LLC, Beijing)
As to B1, the binding result is listed as “binds”.

B2: SEM1_(86–107) (peptide, UniProt P04279 86-107, looked up)
peptide: DLNALHKTTKSQRHLGGSQQLL
notes: as for B1
Turning to B2, the binding result is recorded as “binds”. Consider RLAGGVLVNEILNHMKR (peptide, UniProt P15309 257-273, looked up, source: synthetic peptide) [PAP257–273 GIn259A], for which the binding result is given as “binds”.

With RAQGGVLVNEILNHMKR (peptide, UniProt P15309 257-273, looked up, source: synthetic peptide) [PAP257–273 Leu258A], the binding result is recorded as “binds”.

As to RLQGGVLVNEIANHMKR (peptide, UniProt P15309 257-273, looked up, source: synthetic peptide) [PAP257–273 Leu268A], the binding result is given as “binds”.
